Measurements taken from paper PMC5053586 (Cell Cycle, 2016).
pIC50: −log10 of the molar value.

Experiments:
[1] = molecular target: GST-bound canonical PIP-box from T. brucei paraflagellar complex TbPFC19 (GSTtbPFC-PIP) (Trypanosoma brucei); assay: pull-down
[2] = molecular target: GST-bound canonical PIP-box from T. brucei aurora kinase 1 (GSTtbAUK1-PIP) (Trypanosoma brucei); assay: pull-down
[3] = molecular target: T1, TbERK8 (extracellular-signal regulated kinase 8 homolog, Tb927.10.5140) (Trypanosoma brucei, UniProt Q38B88); assay: […]-ATP kinase assay with MBP substrate, eight-point dose response; assay type: biochemical
T1 sequence (Q38B88 1-442): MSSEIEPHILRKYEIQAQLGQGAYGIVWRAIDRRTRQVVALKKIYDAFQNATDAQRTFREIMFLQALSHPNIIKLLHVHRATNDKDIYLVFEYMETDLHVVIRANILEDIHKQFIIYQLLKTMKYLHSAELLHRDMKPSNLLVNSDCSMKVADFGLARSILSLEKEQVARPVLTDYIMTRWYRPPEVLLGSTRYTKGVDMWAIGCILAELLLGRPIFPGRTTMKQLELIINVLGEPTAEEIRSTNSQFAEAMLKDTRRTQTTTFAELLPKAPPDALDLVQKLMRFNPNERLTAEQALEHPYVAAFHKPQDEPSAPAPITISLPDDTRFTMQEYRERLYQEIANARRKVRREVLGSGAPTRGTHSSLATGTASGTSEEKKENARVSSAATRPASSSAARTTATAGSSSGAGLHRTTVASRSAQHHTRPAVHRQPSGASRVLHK

[4] = molecular target: T1, TbERK8 (extracellular-signal regulated kinase 8 homolog, Tb927.10.5140); assay: HTRF kinase assay; assay type: biochemical
[5] = molecular target: GST-TbERK8-PIP-box fusion protein (GSTtbE8-PIP) (Trypanosoma brucei); assay: pull-down

For “recombinant wt-TbPCNA6H (natural protein)”, the fold pulled down against the TbERK8 PIP-box motif [1] was 3 fold and the fold pulled down against the TbERK8 PIP-box motif [2] was 5 fold.
Compound `Cn1cc(C2=C(c3cn(CCCSC(=N)N)c4ccccc34)C(=O)NC2=O)c2ccccc21` [Ro318220] has a pIC50 [3] of 5.85.
In the case of `COc1ccccc1C(=O)c1cnc(NC2CCN(C(=O)Nc3ccccc3)CC2)nc1N` [SCYX5070], the pIC50 [4] was roughly 2.80.
“hemagglutinin-tagged TbPCNA (wt-TbPCNAHA) (natural protein)” was tested, and the fold pulled down against GST-Ctrl beads [5] was 5 fold.
